The record followed here is patent US20250049960, “Multicomponent systems for site-specific genome modifications” (The Regents of the University of California, published 2025).

Holding throughout (conditions): tags: N-terminal FLAG (GT linker), from HEK293T
In data set [1] the target is T1, BoMo R2 RT (Bombyx mori).
T1 chain: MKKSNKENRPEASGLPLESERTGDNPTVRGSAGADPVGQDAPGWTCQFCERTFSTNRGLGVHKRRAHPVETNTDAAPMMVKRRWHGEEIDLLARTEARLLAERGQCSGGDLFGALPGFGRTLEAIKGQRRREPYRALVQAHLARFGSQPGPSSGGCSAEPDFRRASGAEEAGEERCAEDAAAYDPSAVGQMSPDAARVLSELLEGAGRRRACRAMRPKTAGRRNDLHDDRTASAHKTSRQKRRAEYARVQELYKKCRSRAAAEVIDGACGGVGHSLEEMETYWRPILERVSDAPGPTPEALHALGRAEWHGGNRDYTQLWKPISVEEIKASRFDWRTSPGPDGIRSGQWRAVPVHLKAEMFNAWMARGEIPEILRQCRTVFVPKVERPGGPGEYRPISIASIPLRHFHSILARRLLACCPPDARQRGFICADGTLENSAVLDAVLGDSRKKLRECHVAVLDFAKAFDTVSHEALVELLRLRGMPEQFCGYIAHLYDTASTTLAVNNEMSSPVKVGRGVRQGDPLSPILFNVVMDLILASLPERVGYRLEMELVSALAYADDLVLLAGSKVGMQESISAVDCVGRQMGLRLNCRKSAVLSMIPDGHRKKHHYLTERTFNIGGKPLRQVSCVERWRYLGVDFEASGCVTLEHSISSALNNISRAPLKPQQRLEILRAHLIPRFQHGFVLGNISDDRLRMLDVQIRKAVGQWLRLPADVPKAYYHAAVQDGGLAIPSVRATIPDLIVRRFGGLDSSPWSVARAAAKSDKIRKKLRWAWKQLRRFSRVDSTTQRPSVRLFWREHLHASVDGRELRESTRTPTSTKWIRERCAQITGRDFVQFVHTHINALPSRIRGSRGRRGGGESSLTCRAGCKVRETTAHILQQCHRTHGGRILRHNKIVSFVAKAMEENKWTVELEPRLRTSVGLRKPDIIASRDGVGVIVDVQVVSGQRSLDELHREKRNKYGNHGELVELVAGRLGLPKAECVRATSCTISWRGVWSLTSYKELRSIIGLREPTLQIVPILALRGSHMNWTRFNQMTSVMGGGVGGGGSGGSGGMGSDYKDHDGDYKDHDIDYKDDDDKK
As to the kind of experiment: pulldown; co-expressed in HEK293T, FLAG IP, cognate. An excerpt: (§1) 9 populations of HEK293T cells were transfected with different combinations of plasmids comprised of one of the pcDNA3.1 backbone plasmids expressing RT protein ORFs modified from B. mori (SEQ ID NO. 35, D. simulans (SEQ ID NO. 32), and O. latipes (SEQ ID NO. 8), and an additional plasmid expressing the 3′ UTR RNA from B. mori (SEQ ID 163), D. simulans (SEQ ID NO. 164), or O. latipes (SEQ ID NO. 154) R2 elements (see FIG. 11 A). Each RT protein was co-expressed with each 3′ UTR RNA.
(§2) After allowing sufficient time for the RT protein plasmids to be transcribed and translated and to associate with the transcribed 3′ UTR RNAs, cells were lysed and any RT protein+RNA template complexes were purified by FLAG immunopurification (Sigma FLAG antibody resin). RNA present in each input cell lysate and RNA associated with each immunopurified sample was purified. Equivalent aliquots of each input RNA sample and each RT-bound RNA sample were affixed to Hybond N+membrane (Cytiva) in a grid of spots. Membranes containing spots for each type of 3′ UTR RNA were probed together for the presence of the 3′ UTR RNA, as detected by hybridization to complementary oligonucleotide probes that were ³²P 5′-end-radiolabeled using T4 polynucleotide kinase (NEB). […]

Another data set has as its target T2, OrLa R2 RT (Oryzias latipes).
T2 chain: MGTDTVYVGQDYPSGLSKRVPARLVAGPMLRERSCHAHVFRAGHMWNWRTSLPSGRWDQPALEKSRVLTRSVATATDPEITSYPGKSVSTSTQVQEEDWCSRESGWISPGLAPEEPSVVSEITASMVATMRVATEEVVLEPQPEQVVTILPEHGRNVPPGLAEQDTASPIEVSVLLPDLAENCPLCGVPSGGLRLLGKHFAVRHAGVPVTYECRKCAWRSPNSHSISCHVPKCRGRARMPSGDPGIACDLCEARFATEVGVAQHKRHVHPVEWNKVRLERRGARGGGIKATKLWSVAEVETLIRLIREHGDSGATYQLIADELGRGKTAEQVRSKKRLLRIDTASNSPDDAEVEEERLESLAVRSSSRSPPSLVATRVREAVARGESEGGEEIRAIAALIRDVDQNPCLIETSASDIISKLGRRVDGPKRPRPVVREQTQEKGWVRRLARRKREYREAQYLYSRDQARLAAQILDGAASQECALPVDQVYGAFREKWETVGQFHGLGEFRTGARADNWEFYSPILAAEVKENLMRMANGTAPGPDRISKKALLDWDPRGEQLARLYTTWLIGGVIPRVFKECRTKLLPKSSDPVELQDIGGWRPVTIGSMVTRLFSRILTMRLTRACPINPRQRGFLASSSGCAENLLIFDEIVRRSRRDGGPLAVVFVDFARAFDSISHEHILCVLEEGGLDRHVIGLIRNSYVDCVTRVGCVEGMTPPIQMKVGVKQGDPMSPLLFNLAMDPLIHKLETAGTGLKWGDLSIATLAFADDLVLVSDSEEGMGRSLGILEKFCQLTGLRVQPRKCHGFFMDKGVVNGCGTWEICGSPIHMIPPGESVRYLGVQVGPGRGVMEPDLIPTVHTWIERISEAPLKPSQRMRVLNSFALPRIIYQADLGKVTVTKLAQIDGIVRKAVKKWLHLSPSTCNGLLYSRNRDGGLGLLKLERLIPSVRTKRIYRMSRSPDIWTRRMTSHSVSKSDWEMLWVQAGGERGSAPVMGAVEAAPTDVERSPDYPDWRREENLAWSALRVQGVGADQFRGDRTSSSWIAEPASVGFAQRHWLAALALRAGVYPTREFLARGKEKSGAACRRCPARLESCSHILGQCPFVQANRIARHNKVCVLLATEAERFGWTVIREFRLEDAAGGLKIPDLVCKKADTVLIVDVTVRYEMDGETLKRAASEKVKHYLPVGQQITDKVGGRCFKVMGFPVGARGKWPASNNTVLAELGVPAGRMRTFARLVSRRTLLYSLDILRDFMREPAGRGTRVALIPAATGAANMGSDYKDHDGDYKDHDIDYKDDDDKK
As to the kind of experiment: pulldown; co-expressed in HEK293T, FLAG IP, cognate; more selective.
From the text: as §1, §2

Data set [2] has as its target T1, BoMo R2 RT. As to the kind of experiment: pulldown; co-expressed in HEK293T, FLAG IP, non-cognate.
From the text: as §1, §2

B1: B. mori R2 3'UTR RNA (ssRNA)
RNA: UGAGCCUUGCACAGUAGUCCAGCGGUAAGGGUGUAGAUCAGGCCCGUCUGUUUCUCCCCCGGAGCUCGCUCCCUUGGCUUCCCUUAUAUAUUUUAACAUCAGAAACAGACAUUAAACAUCUACUGAUCCAAUUUCGCCGGCGUACGGCCACGAUCGGGAGGGUGGGAAUCUCGGGGGUCUUCCGAUCCUAAUCCAUGAUGAUUACGACCUGAGUCACUAAAGACGAUGGCAUGAUGAUCCGGCGAUGAAAA
B1: the binding result with BoMo R2 RT [1] is “binds”.

B2: O. latipes R2 3'UTR RNA (ssRNA)
RNA: UGAGGGGGACAGCUGGGAGUCUCGGCAUGAUUACAAAUCUUGCGCUGCACUCGGAUGUCGUCCCCGUGACGGACACAUUAAUCCGGAAAGCGAGUGGUGACUCGCCUCAAG
On to B2, for which the binding result in the data set with OrLa R2 RT and in the data set with BoMo R2 RT [2] was “binds” in each case.

B3: D. simulans R2 3'UTR RNA (ssRNA)
RNA: UAGCUAAAACGUUUGGUUCAAAACAUUUGCUUGCUGUCUUGGCAUAACAUCAAUAAAGGCAUAAACAUCGCAAAAUAAUGGUUAUAUAUAAAUGGCUAUGAGGAUGGUUUUAGUACGUAGGCGUUGCGGAACUUCGGUUCAGAUAGAGCAAUGAAUCGUGCAUGCUAGGAAAACUGACCACACGCAGUGUUGGCAGCCCUAGUAUCUUUCGAUAGAUUUCCAUACCUCCGCGAUCAAAAAAAAAAAAAAAAAAAAAAA
Turning to B3, the binding result in the data set with BoMo R2 RT [2] is recorded as “binds”.
